Data as given in patent US20240270846A1 (published 2024).
Residue numbers refer to the chain shown, from its start. Names may count otherwise.

B1: CE115HA000 A56D one-arm antibody (antibody, human IgG1, kappa, L234A L235A, N297A, name in Kabat numbering)
heavy: QVQLVESGGGVVQPGRSLRLSCAASGFTFSNAWMHWVRQAPGKGLEWVAQIKAKSNNYDTYYAESVKGRFTISRDDSKNSLYLQMNSLKTEDTAVYYCRYVHYGAYYGVDAWGQGTTVTVSSASTKGPSVFPLAPSSKSTSGGTAALGCLVKDYFPEPVTVSWNSGALTSGVHTFPAVLQSSGLYSLSSVVTVPSSSLGTQTYICNVNHKPSNTKVDKKVEPKSCDKTHTCPPCPAPEAAGGPSVFLFPPKPKDTLMISRTPEVTCVVVDVSHEDPEVKFNWYVDGVEVHNAKTKPREEQYASTYRVVSVLTVLHQDWLNGKEYKCKVSNKALPAPIEKTISKAKGQPREPQVYTLPPSRCELTKNQVSLSCAVKGFYPSDIAVEWESNGQPENNYKTTPPVLDSDGSFFLVSKLTVDKSRWQQGNVFSCSVMHEALHNHYTQKSLSLSPDYKDDDDK
chain: EPKSSDKTHTCPPCPAPELLGGPSVFLFPPKPKDTLMISRTPEVTCVVVDVSHEDPEVKFNWYVDGVEVHNAKTKPREEQYNSTYRVVSVLTVLHQDWLNGKEYKCKVSNKALPAPIEKTISKAKGQPREPQVCTLPPSRDELTKNQVSLWCLVKGFYPSDIAVEWESNGQPENNYKTTPPVLDSDGSFFLYSKLTVDKSRWQQGNVFSCSVMHEALHNRYTQKSLSLSP
light: DIVMTQSPLSLPVTPGEPASISCRSSQSLVHSNRNTYLHWYQQKPGQAPRLLIYKVSNRFSGVPDRFSGSGSGTDFTLKISRVEAEDVGVYYCGQGTQVPYTFGQGTKLEIKRTVAAPSVFIFPPSDEQLKSGTASVVCLLNNFYPREAKVQWKVDNALQSGNSQESVTEQDSKDSTYSLSSTLTLSKADYEKHKVYACEVTHQGLSSPVTKSFNRGEC
notes: one-arm antibody
B2: CE115HA000 A56G one-arm antibody (antibody, human IgG1, kappa, L234A L235A, N297A, name in Kabat numbering)
heavy: B1 heavy with D59G
chain: B1 chain
light: B1 light
notes: one-arm antibody
B3: CE115HA000 A56K one-arm antibody (antibody, human IgG1, kappa, L234A L235A, N297A, name in Kabat numbering)
heavy: B1 heavy with D59K
chain: B1 chain
light: B1 light
notes: one-arm antibody
B4: CE115HA000 A60D one-arm antibody (antibody, human IgG1, kappa, L234A L235A, N297A, name in Kabat numbering)
heavy: B1 heavy with D59A, A63D
chain: B1 chain
light: B1 light
notes: one-arm antibody
B5: CE115HA000 A60E one-arm antibody (antibody, human IgG1, kappa, L234A L235A, N297A, name in Kabat numbering)
heavy: B1 heavy with D59A, A63E
chain: B1 chain
light: B1 light
notes: one-arm antibody
B6: CE115HA000 D72A one-arm antibody (antibody, human IgG1, kappa, L234A L235A, N297A, name in Kabat numbering)
heavy: B1 heavy with D59A, D75A
chain: B1 chain
light: B1 light
notes: one-arm antibody
B7: CE115HA000 D72E one-arm antibody (antibody, human IgG1, kappa, L234A L235A, N297A, name in Kabat numbering)
heavy: B1 heavy with D59A, D75E
chain: B1 chain
light: B1 light
notes: one-arm antibody
B8: CE115HA000 D73A one-arm antibody (antibody, human IgG1, kappa, L234A L235A, N297A, name in Kabat numbering)
heavy: B1 heavy with D59A, D76A
chain: B1 chain
light: B1 light
notes: one-arm antibody
B9: CE115HA000 D73E one-arm antibody (antibody, human IgG1, kappa, L234A L235A, N297A, name in Kabat numbering)
heavy: B1 heavy with D59A, D76E
chain: B1 chain
light: B1 light
notes: one-arm antibody
B10: CE115HA000 D73G one-arm antibody (antibody, human IgG1, kappa, L234A L235A, N297A, name in Kabat numbering)
heavy: B1 heavy with D59A, D76G
chain: B1 chain
light: B1 light
notes: one-arm antibody
B11: CE115HA000 D73K one-arm antibody (antibody, human IgG1, kappa, L234A L235A, N297A, name in Kabat numbering)
heavy: B1 heavy with D59A, D76K
chain: B1 chain
light: B1 light
notes: one-arm antibody
B12: CE115HA000 E61A one-arm antibody (antibody, human IgG1, kappa, L234A L235A, N297A, name in Kabat numbering)
heavy: B1 heavy with D59A, E64A
chain: B1 chain
light: B1 light
notes: one-arm antibody
B13: CE115HA000 E61D one-arm antibody (antibody, human IgG1, kappa, L234A L235A, N297A, name in Kabat numbering)
heavy: B1 heavy with D59A, E64D
chain: B1 chain
light: B1 light
notes: one-arm antibody
B14: CE115HA000 F29V one-arm antibody (antibody, human IgG1, kappa, L234A L235A, N297A, name in Kabat numbering)
heavy: B1 heavy with F29V, D59A
chain: B1 chain
light: B1 light
notes: one-arm antibody
B15: CE115HA000 G65D one-arm antibody (antibody, human IgG1, kappa, L234A L235A, N297A, name in Kabat numbering)
heavy: B1 heavy with D59A, G68D
chain: B1 chain
light: B1 light
notes: one-arm antibody
B16: CE115HA000 G65E one-arm antibody (antibody, human IgG1, kappa, L234A L235A, N297A, name in Kabat numbering)
heavy: B1 heavy with D59A, G68E
chain: B1 chain
light: B1 light
notes: one-arm antibody
B17: CE115HA000 H35D one-arm antibody (antibody, human IgG1, kappa, L234A L235A, N297A, name in Kabat numbering)
heavy: B1 heavy with H35D, D59A
chain: B1 chain
light: B1 light
notes: one-arm antibody
B18: CE115HA000 H35E one-arm antibody (antibody, human IgG1, kappa, L234A L235A, N297A, name in Kabat numbering)
heavy: B1 heavy with H35E, D59A
chain: B1 chain
light: B1 light
notes: one-arm antibody
B19: CE115HA000 H35F one-arm antibody (antibody, human IgG1, kappa, L234A L235A, N297A, name in Kabat numbering)
heavy: B1 heavy with H35F, D59A
chain: B1 chain
light: B1 light
notes: one-arm antibody
B20: CE115HA000 H35G one-arm antibody (antibody, human IgG1, kappa, L234A L235A, N297A, name in Kabat numbering)
heavy: B1 heavy with H35G, D59A
chain: B1 chain
light: B1 light
notes: one-arm antibody
B21: CE115HA000 H35I one-arm antibody (antibody, human IgG1, kappa, L234A L235A, N297A, name in Kabat numbering)
heavy: B1 heavy with H35I, D59A
chain: B1 chain
light: B1 light
notes: one-arm antibody
B22: CE115HA000 H35K one-arm antibody (antibody, human IgG1, kappa, L234A L235A, N297A, name in Kabat numbering)
heavy: B1 heavy with H35K, D59A
chain: B1 chain
light: B1 light
notes: one-arm antibody
B23: CE115HA000 H35L one-arm antibody (antibody, human IgG1, kappa, L234A L235A, N297A, name in Kabat numbering)
heavy: B1 heavy with H35L, D59A
chain: B1 chain
light: B1 light
notes: one-arm antibody
B24: CE115HA000 H35M one-arm antibody (antibody, human IgG1, kappa, L234A L235A, N297A, name in Kabat numbering)
heavy: B1 heavy with H35M, D59A
chain: B1 chain
light: B1 light
notes: one-arm antibody
B25: CE115HA000 H35N one-arm antibody (antibody, human IgG1, kappa, L234A L235A, N297A, name in Kabat numbering)
heavy: B1 heavy with H35N, D59A
chain: B1 chain
light: B1 light
notes: one-arm antibody
B26: CE115HA000 H35Q one-arm antibody (antibody, human IgG1, kappa, L234A L235A, N297A, name in Kabat numbering)
heavy: B1 heavy with H35Q, D59A
chain: B1 chain
light: B1 light
notes: one-arm antibody
B27: CE115HA000 H35R one-arm antibody (antibody, human IgG1, kappa, L234A L235A, N297A, name in Kabat numbering)
heavy: B1 heavy with H35R, D59A
chain: B1 chain
light: B1 light
notes: one-arm antibody
B28: CE115HA000 H35S one-arm antibody (antibody, human IgG1, kappa, L234A L235A, N297A, name in Kabat numbering)
heavy: B1 heavy with H35S, D59A
chain: B1 chain
light: B1 light
notes: one-arm antibody
B29: CE115HA000 H35T one-arm antibody (antibody, human IgG1, kappa, L234A L235A, N297A, name in Kabat numbering)
heavy: B1 heavy with H35T, D59A
chain: B1 chain
light: B1 light
notes: one-arm antibody
B30: CE115HA000 H35V one-arm antibody (antibody, human IgG1, kappa, L234A L235A, N297A, name in Kabat numbering)
heavy: B1 heavy with H35V, D59A
chain: B1 chain
light: B1 light
notes: one-arm antibody
B31: CE115HA000 H35W one-arm antibody (antibody, human IgG1, kappa, L234A L235A, N297A, name in Kabat numbering)
heavy: B1 heavy with H35W, D59A
chain: B1 chain
light: B1 light
notes: one-arm antibody
B32: CE115HA000 H35Y one-arm antibody (antibody, human IgG1, kappa, L234A L235A, N297A, name in Kabat numbering)
heavy: B1 heavy with H35Y, D59A
chain: B1 chain
light: B1 light
notes: one-arm antibody
B33: CE115HA000 I51D one-arm antibody (antibody, human IgG1, kappa, L234A L235A, N297A, name in Kabat numbering)
heavy: B1 heavy with I51D, D59A
chain: B1 chain
light: B1 light
notes: one-arm antibody

The binders below were run against T1, CD3 epsilon homodimer protein (UniProt P07766 23-126) (assay: SPR Biacore T200, antibody over immobilised CD3e homodimer;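 further: CD3 epsilon homodimer amine-coupled on a CM4 chip, run at 25 °C in HBS-EP+, Z = bound amount of each single-residue H chain variant over that of the parent antibody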).
T1 construct: also called CD3 (CD3 epsilon)
T1 sequence (P07766 23-126): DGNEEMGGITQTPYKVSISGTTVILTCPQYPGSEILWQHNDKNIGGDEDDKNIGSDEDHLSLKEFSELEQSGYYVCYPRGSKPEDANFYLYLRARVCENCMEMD
Protocol: An appropriate amount of CD3 epsilon homodimer protein was immobilized onto Sensor chip CM4 (GE Healthcare Japan Corp.) by the amine coupling method. Then, the antibody having an appropriate concentration was injected thereto as an analyte and allowed to interact with the CD3 epsilon homodimer protein on the sensor chip. Then, the sensor chip was regenerated by the injection of 10 mmol/L glycine-HCl (pH 1.5). The assay was conducted at 25 degrees C., and HBS-EP+(GE Healthcare Japan Corp.) was used as a running buffer. […] Each parameter was calculated using Biacore T200 Evaluation Software (GE Healthcare Japan Corp.).
Specifically, when the amount of the antibody comprising CE115HA000 bound was defined as X and the amount of the H chain one-amino acid altered form bound was defined as Y, a value of Z (ratio of amounts bound)=Y/X was used.

Binder	ratio of amounts bound (Z=Y/X vs CE115HA000)
B1	0.51
B2	0.61
B3	1.35
B4	0.99
B5	0.94
B6	1.41
B7	1.05
B8	0.83
B9	0.73
B10	1.07
B11	0.87
B12	1.09
B13	0.91
B14	0.36
B15	0.76
B16	0.78
B17	0.2

Binder	ratio of amounts bound (Z=Y/X vs CE115HA000)
B18	0.19
B19	0.21
B20	0.22
B21	0.12
B22	0.15
B23	0.11
B24	0.29
B25	0.35
B26	0.13
B27	0.14
B28	0.23
B29	0.26
B30	0.22
B31	0.22
B32	0.16
B33	0.29
